Biological target: T1, CD276抗原 (UniProt Q5ZPR3 29-466, limits assumed)
T1 construct: also called CD276靶抗原; CD276目的蛋白
T1 sequence (looked up): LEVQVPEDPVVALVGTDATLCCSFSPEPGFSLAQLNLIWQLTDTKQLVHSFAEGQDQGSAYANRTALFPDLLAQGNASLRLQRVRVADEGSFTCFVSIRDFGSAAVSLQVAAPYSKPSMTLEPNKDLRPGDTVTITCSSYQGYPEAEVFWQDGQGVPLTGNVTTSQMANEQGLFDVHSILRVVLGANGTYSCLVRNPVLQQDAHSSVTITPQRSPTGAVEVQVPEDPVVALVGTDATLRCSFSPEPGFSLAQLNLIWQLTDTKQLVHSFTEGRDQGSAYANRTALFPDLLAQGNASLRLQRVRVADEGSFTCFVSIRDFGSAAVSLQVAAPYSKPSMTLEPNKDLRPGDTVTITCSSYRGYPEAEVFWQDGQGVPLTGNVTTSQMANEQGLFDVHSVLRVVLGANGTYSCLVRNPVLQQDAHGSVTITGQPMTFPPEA
Test: phage ELISA on coated antigen, TMB, OD450nm

B1: CD276-03 monoclonal phage (clone 03 scFv displayed on phage) (scFv)
scFv: QVQLVQSGGGVVQPGRSLRLSCSASGFTFNSHGMHWVRQAPGKGLEWVGVIWYDGSNAYYADSAKGRFTISRDNSKNSVYLQLNSLGVEDTALYYCAKSDRPHPMGFYYYMDVWGQGTTVTVSSGGGGSGGGGSQSALTQPASVSGSPGQSITISCTGTSSDVGGYNYVSWYQQHPGKAPKLMIYDVSNRPSGVSNRFSGSKSGNTASLTISGLQAEDEADYYCSSYTSSSTLVFGGGTK
notes: The phage coat protein fusion partner is not described; also called 克隆03
B1: no binding.

— patent publication CN113461818A (UNIV XUZHOU MEDICAL, dated 2021)
